Measurements taken from the supplement of paper PMC9112550, “Optimization of the antimicrobial peptide Bac7 by deep mutational scanning” (BMC Biology, 2022).

These sequences were tested on Escherichia coli TOP10 (assay: shrunken log2 fold change of peptide-encoding DNA abundance (4.5 h post-induction vs induction); higher = less antimicrobial activity (less host growth inhibition)). Settings: time post-induction: 4.5 h; library: site-saturation at positions 5, 18, 19, 20.
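Note: peptides expressed intracellularly from a pBAD plasmid library in pooled LB shake-flask culture, induced with 0.3% L-arabinose, DNA abundance read by NGS, three biological replicates, DESeq2 with apeglm shrinkage.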

Row | Sequence | shrunken log2 fold change
1 | RRIRDRPPRLPRPRPRPWVYPRP | -0.0138
2 | RRIRDRPPRLPRPRPRPWYCPRP | -0.137
3 | RRIRDRPPRLPRPRPRPYAGPRP | 0.0325
4 | RRIRDRPPRLPRPRPRPYAKPRP | 0.019
5 | RRIRDRPPRLPRPRPRPYCDPRP | -0.181
6 | RRIRDRPPRLPRPRPRPYCHPRP | -0.121
7 | RRIRDRPPRLPRPRPRPYDHPRP | -0.361
8 | RRIRDRPPRLPRPRPRPYFPPRP | -0.944
9 | RRIRDRPPRLPRPRPRPYGQPRP | -0.0816
10 | RRIRDRPPRLPRPRPRPYHAPRP | -0.0316
11 | RRIRDRPPRLPRPRPRPYIEPRP | -0.0649
12 | RRIRDRPPRLPRPRPRPYKAPRP | -0.0157
13 | RRIRDRPPRLPRPRPRPYKGPRP | -0.00133
14 | RRIRDRPPRLPRPRPRPYKNPRP | -0.454
15 | RRIRDRPPRLPRPRPRPYKWPRP | -0.595
16 | RRIRDRPPRLPRPRPRPYMLPRP | -0.153
17 | RRIRDRPPRLPRPRPRPYQNPRP | -0.288
18 | RRIRDRPPRLPRPRPRPYQWPRP | 0.0508
19 | RRIRDRPPRLPRPRPRPYRDPRP | -0.444
20 | RRIRDRPPRLPRPRPRPYRFPRP | -0.0178
21 | RRIRDRPPRLPRPRPRPYRIPRP | 0.0295
22 | RRIRDRPPRLPRPRPRPYSDPRP | 0.0396
23 | RRIRDRPPRLPRPRPRPYSKPRP | 0.0519
24 | RRIRDRPPRLPRPRPRPYSQPRP | -0.0305
25 | RRIRDRPPRLPRPRPRPYVFPRP | -0.18

Row | Sequence | shrunken log2 fold change
26 | RRIRDRPPRLPRPRPRPYVYPRP | -0.0147
27 | RRIRDRPPRLPRPRPRPYWIPRP | -0.296
28 | RRIRERPPRLPRPRPRPAAMPRP | 0.102
29 | RRIRERPPRLPRPRPRPAATPRP | 0.222
30 | RRIRERPPRLPRPRPRPADKPRP | -0.187
31 | RRIRERPPRLPRPRPRPADTPRP | -0.262
32 | RRIRERPPRLPRPRPRPAEEPRP | -0.175
33 | RRIRERPPRLPRPRPRPAFEPRP | -0.0208
34 | RRIRERPPRLPRPRPRPAFGPRP | 0.353
35 | RRIRERPPRLPRPRPRPAGLPRP | -0.0519
36 | RRIRERPPRLPRPRPRPAGNPRP | -0.0376
37 | RRIRERPPRLPRPRPRPAHAPRP | 0.117
38 | RRIRERPPRLPRPRPRPAHQPRP | -0.136
39 | RRIRERPPRLPRPRPRPAIGPRP | 0.0473
40 | RRIRERPPRLPRPRPRPAIHPRP | 0.125
41 | RRIRERPPRLPRPRPRPAKFPRP | 0.112
42 | RRIRERPPRLPRPRPRPAKHPRP | -0.107
43 | RRIRERPPRLPRPRPRPAKVPRP | -0.182
44 | RRIRERPPRLPRPRPRPALFPRP | 0.0738
45 | RRIRERPPRLPRPRPRPALKPRP | 0.4
46 | RRIRERPPRLPRPRPRPALPPRP | 0.439
47 | RRIRERPPRLPRPRPRPALRPRP | 0.0887
48 | RRIRERPPRLPRPRPRPALVPRP | 0.193
49 | RRIRERPPRLPRPRPRPAMEPRP | -0.0417
50 | RRIRERPPRLPRPRPRPANGPRP | -0.042

Row | Sequence | shrunken log2 fold change
51 | RRIRERPPRLPRPRPRPANYPRP | -0.0934
52 | RRIRERPPRLPRPRPRPARKPRP | 0.00472
53 | RRIRERPPRLPRPRPRPATCPRP | -0.292
54 | RRIRERPPRLPRPRPRPAWPPRP | 0.359
55 | RRIRERPPRLPRPRPRPAWTPRP | 0.0563
56 | RRIRERPPRLPRPRPRPAYSPRP | -0.0646
57 | RRIRERPPRLPRPRPRPCAFPRP | -0.315
58 | RRIRERPPRLPRPRPRPCATPRP | 0.0398
59 | RRIRERPPRLPRPRPRPCCAPRP | 0.112
60 | RRIRERPPRLPRPRPRPCCHPRP | -0.603
61 | RRIRERPPRLPRPRPRPCCKPRP | -0.267
62 | RRIRERPPRLPRPRPRPCEFPRP | -0.283
63 | RRIRERPPRLPRPRPRPCFNPRP | -0.324
64 | RRIRERPPRLPRPRPRPCKYPRP | 3.12
65 | RRIRERPPRLPRPRPRPCLGPRP | -0.0295
66 | RRIRERPPRLPRPRPRPCLQPRP | -0.218
67 | RRIRERPPRLPRPRPRPCNDPRP | -0.19
68 | RRIRERPPRLPRPRPRPCNKPRP | -0.858
69 | RRIRERPPRLPRPRPRPCQCPRP | -0.0543
70 | RRIRERPPRLPRPRPRPCRHPRP | -0.00171
71 | RRIRERPPRLPRPRPRPCRPPRP | -0.00126
72 | RRIRERPPRLPRPRPRPCTRPRP | 0.0517
73 | RRIRERPPRLPRPRPRPCWTPRP | 0.0421
74 | RRIRERPPRLPRPRPRPCWYPRP | -0.0102
75 | RRIRERPPRLPRPRPRPDARPRP | -0.0768

Row | Sequence | shrunken log2 fold change
76 | RRIRERPPRLPRPRPRPDCEPRP | -0.0494
77 | RRIRERPPRLPRPRPRPDDLPRP | 0.00911
78 | RRIRERPPRLPRPRPRPDEFPRP | 0.0332
79 | RRIRERPPRLPRPRPRPDETPRP | -0.015
80 | RRIRERPPRLPRPRPRPDFEPRP | -0.117
81 | RRIRERPPRLPRPRPRPDGFPRP | -0.134
82 | RRIRERPPRLPRPRPRPDGNPRP | -0.032
83 | RRIRERPPRLPRPRPRPDHNPRP | -0.897
84 | RRIRERPPRLPRPRPRPDHTPRP | -0.0309
85 | RRIRERPPRLPRPRPRPDIRPRP | -0.0427
86 | RRIRERPPRLPRPRPRPDIYPRP | 0.137
87 | RRIRERPPRLPRPRPRPDKPPRP | -0.051
88 | RRIRERPPRLPRPRPRPDLPPRP | -0.156
89 | RRIRERPPRLPRPRPRPDLTPRP | 0.0375
90 | RRIRERPPRLPRPRPRPDLYPRP | -0.0156
91 | RRIRERPPRLPRPRPRPDNCPRP | -0.0268
92 | RRIRERPPRLPRPRPRPDQEPRP | -0.0156
93 | RRIRERPPRLPRPRPRPDQPPRP | 0.0454
94 | RRIRERPPRLPRPRPRPDRHPRP | -0.0302
95 | RRIRERPPRLPRPRPRPDSCPRP | -0.149
96 | RRIRERPPRLPRPRPRPDSLPRP | -0.391
97 | RRIRERPPRLPRPRPRPDSQPRP | -0.0262
98 | RRIRERPPRLPRPRPRPDSVPRP | -0.17
99 | RRIRERPPRLPRPRPRPDWNPRP | -0.631
100 | RRIRERPPRLPRPRPRPDWYPRP | -0.297

Row | Sequence | shrunken log2 fold change
101 | RRIRERPPRLPRPRPRPEAFPRP | 0.0868
102 | RRIRERPPRLPRPRPRPEAKPRP | 0.0152
103 | RRIRERPPRLPRPRPRPECHPRP | 0.0213
104 | RRIRERPPRLPRPRPRPEDIPRP | -0.00136
105 | RRIRERPPRLPRPRPRPEDRPRP | -0.0523
106 | RRIRERPPRLPRPRPRPEEQPRP | 0.221
107 | RRIRERPPRLPRPRPRPEETPRP | -0.0248
108 | RRIRERPPRLPRPRPRPEFSPRP | -0.178
109 | RRIRERPPRLPRPRPRPEFTPRP | 0.0663
110 | RRIRERPPRLPRPRPRPEFYPRP | -0.377
111 | RRIRERPPRLPRPRPRPEGWPRP | 0.668
112 | RRIRERPPRLPRPRPRPEMGPRP | -0.116
113 | RRIRERPPRLPRPRPRPENHPRP | -0.455
114 | RRIRERPPRLPRPRPRPENNPRP | -0.27
115 | RRIRERPPRLPRPRPRPEPWPRP | 0.0721
116 | RRIRERPPRLPRPRPRPEQEPRP | -0.0107
117 | RRIRERPPRLPRPRPRPEQGPRP | 0.0117
118 | RRIRERPPRLPRPRPRPEQPPRP | -0.064
119 | RRIRERPPRLPRPRPRPEQRPRP | 0.32
120 | RRIRERPPRLPRPRPRPEQWPRP | 0.127
121 | RRIRERPPRLPRPRPRPETQPRP | 0.0866
122 | RRIRERPPRLPRPRPRPETRPRP | -0.0227
123 | RRIRERPPRLPRPRPRPETSPRP | 0.122
124 | RRIRERPPRLPRPRPRPEVCPRP | -0.0484
125 | RRIRERPPRLPRPRPRPEWEPRP | -0.0115

Row | Sequence | shrunken log2 fold change
126 | RRIRERPPRLPRPRPRPEWQPRP | -0.0536
127 | RRIRERPPRLPRPRPRPEYAPRP | -0.143
128 | RRIRERPPRLPRPRPRPEYCPRP | 0.0191
129 | RRIRERPPRLPRPRPRPEYDPRP | -0.00663
130 | RRIRERPPRLPRPRPRPFELPRP | -0.0731
131 | RRIRERPPRLPRPRPRPFGYPRP | -0.0787
132 | RRIRERPPRLPRPRPRPFHDPRP | -0.291
133 | RRIRERPPRLPRPRPRPFHEPRP | -0.0823
134 | RRIRERPPRLPRPRPRPFHRPRP | -0.182
135 | RRIRERPPRLPRPRPRPFIHPRP | -1.12
136 | RRIRERPPRLPRPRPRPFINPRP | -0.991
137 | RRIRERPPRLPRPRPRPFLPPRP | -0.701
138 | RRIRERPPRLPRPRPRPFLYPRP | -0.761
139 | RRIRERPPRLPRPRPRPFMHPRP | -0.121
140 | RRIRERPPRLPRPRPRPFMNPRP | -0.00101
141 | RRIRERPPRLPRPRPRPFQQPRP | -0.0184
142 | RRIRERPPRLPRPRPRPFQSPRP | -0.00776
143 | RRIRERPPRLPRPRPRPFSDPRP | -0.0836
144 | RRIRERPPRLPRPRPRPFSWPRP | 0.0616
145 | RRIRERPPRLPRPRPRPFWHPRP | -0.0333
146 | RRIRERPPRLPRPRPRPFYHPRP | -1.01
147 | RRIRERPPRLPRPRPRPGDCPRP | -0.0777
148 | RRIRERPPRLPRPRPRPGDFPRP | -0.107
149 | RRIRERPPRLPRPRPRPGESPRP | -0.0304
150 | RRIRERPPRLPRPRPRPGIDPRP | -0.14
